Sequences and labels used below:
B1: HpUreF(R179A/Y183D)/HpUreD(E140A)-Strep complex, in the cryo-EM sample (complex)
chain 1: MDKGKSVKSTEKSVGMPPKTPKTDNNAHVDNEFLILQVNDAVFPIGSYTHSFGLETYIQQKKVTNKESALEYLKANLSSQFLYTEMLSLKLTYESALQQDLKKILGVEEVIMLSTSPMELRLANQKLGNRFIKTLQAMNELDMGEFFNAYAQKTKDPTHATSYGVFAASLGIELKKALAHYLDAQTSNMVINCVKSVPLSQNDGQKILLSLQSPFNQLIEKTLELDESHLCTASVQNDIKAMQHESLYSRLYMS
chain 2: MNTYAQESKLRLKTKIGADGRCVIEDNFFTPPFKLMAPFYPKDDLAEIMLLAVSPGMMRGDAQDVQLNIGPNCKLRITSQSFEKIHNTEDGFASRDMHIVVGENAFLDFAPFPLIPFENAHFKGNTTISLRSSSQLLYSAIIVAGRVARNELFKFNRLHTKISILQDEKPIYYDNTILDPKTTDLNNMCMFDGYTHYLNLVLVNCPIELSGVRECIEESEGVDGAVSETASSHLCVKALAKGSEPLLHLREKIARLVTQTTTQKV
notes: Helicobacter pylori urease accessory protein HpUreF; Helicobacter pylori urease accessory protein HpUreD (encoded by ureH); one copy of HpUreF and one of HpUreD per urease catalytic unit; also called HpUreFD
B2: HpUreD(E140A) with C-terminal Strep-tag II, in the cryo-EM sample (natural protein)
chain: B1 chain 2
notes: Helicobacter pylori urease accessory protein HpUreD (encoded by ureH); also called UreH
B3: HpUreF(R179A/Y183D), in the cryo-EM sample (natural protein)
chain: B1 chain 1
notes: Helicobacter pylori urease accessory protein HpUreF; everywhere else R179A/Y183D
B4: HpUreA (H. pylori urease subunit, fusion of the γ and β domains), in the cryo-EM sample (natural protein)
chain: MKLTPKELDKLMLHYAGELAKKRKEKGIKLNYVEAVALISAHIMEEARAGKKTAAELMQEGRTLLKPDDVMDGVASMIHEVGIEAMFPDGTKLVTVHTPIEANGKLVPGELFLKNEDITINEGKKAVSVKVKNVGDRPVQIGSHFHFFEVNRCLDFDREKTFGKRLDIASGTAVRFEPGEEKSVELIDIGGNRRIFGFNALVDRQADNESKKIALHRAKERGFHGAKSDDNYVKTIKE
notes: Helicobacter pylori urease subunit HpUreA (γ and β domains)

Test in all cases: cryo-EM structure; HpUreFD/urease complex coexpressed in E. coli, purified by Strep-Tactin XT and Superose-6 SEC in 50 mM Hepes, 200 mM NaCl, 0.5 mM TCEP (pH 7.5); 0.5 mg/ml on grids; tetrahedral symmetry; 2.3 Å
Holding throughout (conditions): both partners purified

Assay [1] deals with T1, H. pylori urease (HpUreAB), in the cryo-EM sample (Helicobacter pylori, UniProt P14916 1-238; P69996 1-569).
T1 construct: Helicobacter pylori urease subunit HpUreA (γ and β domains); Helicobacter pylori urease subunit HpUreB (α domain); dodecamer of HpUreAB catalytic units (four trimers); copies: 12 + 12
T1 sequence (P69996 whole entry, one chain of several): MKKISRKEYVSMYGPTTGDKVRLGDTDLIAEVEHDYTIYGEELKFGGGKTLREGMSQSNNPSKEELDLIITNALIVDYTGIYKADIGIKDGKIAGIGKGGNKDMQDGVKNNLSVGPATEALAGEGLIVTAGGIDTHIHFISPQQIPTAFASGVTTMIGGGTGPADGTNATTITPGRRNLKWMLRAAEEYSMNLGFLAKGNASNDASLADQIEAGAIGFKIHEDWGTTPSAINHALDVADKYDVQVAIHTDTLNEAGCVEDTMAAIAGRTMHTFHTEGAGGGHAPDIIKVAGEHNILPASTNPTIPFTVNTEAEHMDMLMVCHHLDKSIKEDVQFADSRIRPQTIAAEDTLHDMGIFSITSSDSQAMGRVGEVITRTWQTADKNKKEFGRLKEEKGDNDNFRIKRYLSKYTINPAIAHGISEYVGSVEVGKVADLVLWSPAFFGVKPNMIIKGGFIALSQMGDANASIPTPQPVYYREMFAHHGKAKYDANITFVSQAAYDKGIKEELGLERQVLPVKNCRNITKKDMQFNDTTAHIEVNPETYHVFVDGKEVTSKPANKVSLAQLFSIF

Assay [2] concerns the target T2, HpUreB (H. pylori urease subunit, α domain), in the cryo-EM sample (Helicobacter pylori, UniProt P69996 1-569).
T2 construct: Helicobacter pylori urease subunit HpUreB (α domain)

Assay [3] deals with B2.

T2 sequence (P69996 whole entry): as the sequence (P69996 whole entry, one chain of several) above

On to B1, for which the binding result in assay [1] was “binds”. In the case of B2, the binding result in assay [2] is “binds”. Turning to B3, the binding result in assay [3] is listed as “binds”. In the case of B4, the binding result in assay [2] and in assay [3] was “binds” each time.

(Values after paper PMC10121161, “Delivering a toxic metal to the active site of urease” (Science Advances, 2023).)
